Patent publication US20020123091

T1: PRO256 polypeptide
T1 chain: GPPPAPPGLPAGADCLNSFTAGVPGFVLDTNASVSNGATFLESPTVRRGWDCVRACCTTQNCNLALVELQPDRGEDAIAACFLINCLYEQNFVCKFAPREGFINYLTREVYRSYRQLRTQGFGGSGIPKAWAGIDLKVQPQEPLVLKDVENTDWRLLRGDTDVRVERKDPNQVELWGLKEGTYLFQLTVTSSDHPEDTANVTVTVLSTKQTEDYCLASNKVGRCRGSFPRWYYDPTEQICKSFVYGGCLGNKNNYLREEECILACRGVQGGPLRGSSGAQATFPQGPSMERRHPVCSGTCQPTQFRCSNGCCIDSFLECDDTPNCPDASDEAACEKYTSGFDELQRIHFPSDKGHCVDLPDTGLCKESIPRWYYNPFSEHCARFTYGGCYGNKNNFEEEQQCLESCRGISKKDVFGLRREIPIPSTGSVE


How the values were obtained:
[1] = biological target: T1, PRO256 polypeptide
[2] = biological target: single-chain hepatocyte growth factor (scHGF)
Sequence of single-chain hepatocyte growth factor (scHGF) (P14210 whole entry): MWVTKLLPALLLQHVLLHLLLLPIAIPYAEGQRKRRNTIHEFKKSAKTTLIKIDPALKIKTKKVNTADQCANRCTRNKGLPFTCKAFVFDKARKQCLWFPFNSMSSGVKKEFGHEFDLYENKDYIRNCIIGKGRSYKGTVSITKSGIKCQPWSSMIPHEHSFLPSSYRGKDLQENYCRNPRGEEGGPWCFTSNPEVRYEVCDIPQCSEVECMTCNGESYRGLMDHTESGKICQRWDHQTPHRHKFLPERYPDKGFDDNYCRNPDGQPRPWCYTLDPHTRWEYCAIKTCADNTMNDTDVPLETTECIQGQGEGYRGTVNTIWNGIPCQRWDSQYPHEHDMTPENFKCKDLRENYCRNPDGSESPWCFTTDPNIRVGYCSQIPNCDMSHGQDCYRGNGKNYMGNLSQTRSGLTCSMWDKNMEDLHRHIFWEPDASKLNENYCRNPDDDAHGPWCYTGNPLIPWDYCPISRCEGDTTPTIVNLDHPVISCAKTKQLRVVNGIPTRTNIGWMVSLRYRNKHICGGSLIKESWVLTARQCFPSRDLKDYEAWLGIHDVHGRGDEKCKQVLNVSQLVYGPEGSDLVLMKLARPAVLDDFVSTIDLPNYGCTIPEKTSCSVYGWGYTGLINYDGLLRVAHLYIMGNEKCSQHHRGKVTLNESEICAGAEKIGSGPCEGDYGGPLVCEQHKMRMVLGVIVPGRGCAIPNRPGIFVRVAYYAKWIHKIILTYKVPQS

Protein	human serum (10%)-mediated conversion of ^125I-scHGF into its two chain form, SDS-PAGE/autoradiography, PRO256 at 1 µM [1]	factor XIIa (40 nM) conversion of ^125I-scHGF into its two chain form, SDS-PAGE/autoradiography, with or without PRO256 [1]	conversion of ^125I-scHGF into its two chain form, factor XIIa 40 nM, SDS-PAGE/autoradiography [2]	conversion of scHGF into its two chain form, factor XIIa 20 nM, SDS-PAGE with autoradiography or Coomassie staining [2]
hepatocyte growth factor activator (as present in human serum) (protein) VQLSPDLLATLPEPASPGRQACGRRHKKRTFLRPRIIGGSSSLPGSHPWLAAIYIGDSFCAGSLVHTCWVVSAAHCFSHSPPRDSVSVVLGQHFFNRTTDVTQTFGIEKYIPYTLYSVFNPSDHDLVLIRLKKKGDRCATRSQFVQPICLPEPGSTFPAGHKCQIAGWGHLDENVSGYSSSLREALVPLVADHKCSSPEVYGADISPNMLCAGYFDCKSDACQGDSGGPLACEKNGVAYLYGIISWGDGCGRLHKPGVYTRVANYVDWINDRIRPPRRLVAPS	In the presence of the inhibitor PRO256 (at time intervals 0, 0.5 hr, 1 hr, 2 hr, and 4 hr), ^125I-sc-HGF is not converted two chain form as indicated by the top heavy band on the gel.	–	–	–
human factor XIIa (Haematologic Technologies) (protein) IPPWEAPKEHKYKAEEHTVVLTVTGEPCHFPFQYHRQLYHKCTHKGRPGPQPWCATTPNFDQDQRWGYCLEPKKVKDHCSKHSPCQKGGTCVNMPSGPHCLCPQHLTGNHCQKEKCFEPQLLRFFHKNEIWYRTEQAAVARCQCKGPDAHCQRLASQACRTNPCLHGGRCLEVEGHRLCHCPVGYTGAFCDVDTKASCYDGRGLSYRGLARTTLSGAPCQPWASEATYRNVTAEQARNWGLGGHAFCRNPDNDIRPWCFVLNRDRLSWEYCDLAQCQTPTQAAPPTPVSPRLHVPLMPAQPAPPKPQPTTRTPPQSQTPGALPAKREQPPSLTRNGPLSCGQRLRKSLSSMTRVVGGLVALRGAHPYIAALYWGHSFCAGSLIAPCWVLTAAHCLQDRPAPEDLTVVLGQERRNHSCEPCQTLAVRSYRLHEAFSPVSYQHDLALLRLQEDADGSCALLSPYVQPVCLPSGAARPSETTLCQVAGWGHQFEGAEEYASFLQEAQVPFLSLERCSAPDVHGSSILPGMLCAGFLEGGTDACQGDSGGPLVCEDQAAERRLTLQGIISWGSGCGDRNKPGVYTDVAYYLAWIREHTVS	–	In the presence or absence of PRO256, factor XIIa converts ^125I-scHGF into its two chain form, thereby indicating lack of inhibition by PRO256.	factor XIIa converts ^125I-scHGF into its two chain form	Both labelled and unlabelled HGF were converted identically, suggesting that the iodination of scHGF did not impair processing by its activators, such as factor XIIa.
